Measured values taken from article PMC3510510, “Structural insight of a concentration-dependent mechanism by which YdiV inhibits Escherichia coli flagellum biogenesis and motility” (Nucleic Acids Research, 2012).
Substitutions are numbered along the chain they refer to.

T1: FlhD4C2 complex (E. coli, UniProt P0A8S9 1-116; P0ABY7 1-192)
T1 sequence 1: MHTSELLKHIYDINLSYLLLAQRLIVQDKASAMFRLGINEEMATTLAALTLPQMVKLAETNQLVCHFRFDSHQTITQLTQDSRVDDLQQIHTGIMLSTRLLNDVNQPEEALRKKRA
T1 sequence 2: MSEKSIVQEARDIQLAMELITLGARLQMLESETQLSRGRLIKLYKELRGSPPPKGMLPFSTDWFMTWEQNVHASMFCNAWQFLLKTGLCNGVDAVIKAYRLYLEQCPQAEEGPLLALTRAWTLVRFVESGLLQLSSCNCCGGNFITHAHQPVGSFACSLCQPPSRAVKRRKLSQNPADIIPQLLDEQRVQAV

T2: DCmut-1 (FlhDC complex with FlhC K42E, K45E) (E. coli, UniProt P0A8S9 1-116; P0ABY7 1-192, K42E | K45E)
T2 construct: FlhD, E. coli; FlhC, E. coli; Lys42 and Lys45 substituted by Glu; Probably carries the C-terminal His-tag on FlhC as the wild-type complex does; the methods say only that mutants were cloned into pGL01; source: E. coli, purified
T2 sequence 1: T1 sequence 1
T2 sequence 2: T1 sequence 2 with K42E, K45E

T3: DCmut-2 (FlhDC complex with FlhC R37E, R39E, K42E, K45E) (E. coli, UniProt P0A8S9 1-116; P0ABY7 1-192, R37E | R39E | K42E | K45E)
T3 construct: FlhD, E. coli; FlhC, E. coli, four substitutions; Probably carries the C-terminal His-tag on FlhC as the wild-type complex does; the methods say only that mutants were cloned into pGL01; source: E. coli, purified
T3 sequence 1: T1 sequence 1
T3 sequence 2: T1 sequence 2 with R37E, R39E, K42E, K45E

B1: FlhD fragment 1–106aa (domain or fragment, E. coli, UniProt P0A8S9 1-106, looked up)
chain: MHTSELLKHIYDINLSYLLLAQRLIVQDKASAMFRLGINEEMATTLAALTLPQMVKLAETNQLVCHFRFDSHQTITQLTQDSRVDDLQQIHTGIMLSTRLLNDVNQ
notes: FlhD, E. coli, residues 1-106; also called FlhD (1–106aa); source: E. coli, purified recombinant protein
B2: FlhD fragment 1–98aa (domain or fragment, E. coli, UniProt P0A8S9 1-98, looked up)
chain: MHTSELLKHIYDINLSYLLLAQRLIVQDKASAMFRLGINEEMATTLAALTLPQMVKLAETNQLVCHFRFDSHQTITQLTQDSRVDDLQQIHTGIMLST
notes: FlhD, E. coli, residues 1-98; also called FlhD (1–98aa); source: E. coli, purified recombinant protein
B3: FlhD-His (natural protein, E. coli)
chain: T1 sequence 1
notes: FlhD, E. coli; the flhD gene was cloned into pET29b and pGL01; source: E. coli BL21(DE3): co-expressed with YdiV (in lysate); purified as bait for the pull-down
B4: FlhD fragment 1–71aa (domain or fragment, E. coli, UniProt P0A8S9 1-71, looked up)
chain: MHTSELLKHIYDINLSYLLLAQRLIVQDKASAMFRLGINEEMATTLAALTLPQMVKLAETNQLVCHFRFDS
notes: FlhD, E. coli, residues 1-71; also called FlhD (1–71aa); source: E. coli, purified recombinant protein
B5: FlhD fragment 1–82aa (domain or fragment, E. coli, UniProt P0A8S9 1-82, looked up)
chain: MHTSELLKHIYDINLSYLLLAQRLIVQDKASAMFRLGINEEMATTLAALTLPQMVKLAETNQLVCHFRFDSHQTITQLTQDS
notes: FlhD, E. coli, residues 1-82; also called FlhD (1–82aa); source: E. coli, purified recombinant protein
B6: YdiV (natural protein, E. coli)
chain: MKIFLENLYHSDCYFLPIRDNQQVLVGVELITHFSSEDGTVRIPTSRVIAQLTEEQHWQLFSEQLELLKSCQHFFIQHKLFAWLNLTPQVATLLLERDNYAGELLKYPFIELLINENYPHLNEGKDNRGLLSLSQVYPLVLGNLGAGNSTMKAVFDGLFTRVMLDKSFIQQQITHRSFEPFIRAIQAQISPCCNCIIAGGIDTAEILAQITPFDFHALQGCLWPAVPINQITTLVQR
notes: YdiV, E. coli; the ydiV gene was cloned into pET29b and pGL01; His-tag removal by PPase is stated for prey proteins of the pull-down; The crystal of YdiV alone (3TLQ) was phased with Se-Met-YdiV; also called native YdiV; wild-type YdiV; source: E. coli BL21(DE3), purified (Ni2+-NTA, Source-Q, Superdex 200)

What was measured:
YdiV = target: B6; assay: pull-down; His-tagged bait immobilised on Ni2+-NTA beads, prey with His-tag removed by PPase; 4°C, 30 min; 25 mM Tris-HCl pH 8.0, 100 mM NaCl; eluted with 250 mM imidazole; SDS-PAGE, Coomassie; conditions: both partners purified
FlhD4C2 complex [1] = target: T1, FlhD4C2 complex; assay: cell-based or functional assay
FlhD4C2 complex [2] = target: T1, FlhD4C2 complex; assay: SEC; YdiV and FlhD4C2 mixed at molar ratios 5:1, 4:1, 3:1, 2:1 or 1:1 for 10 min at room temperature; Superdex 200; fractions on SDS-PAGE; conditions: both partners purified
[3] = target: T2, DCmut-1 (FlhDC complex with FlhC K42E, …); assay: pull-down; His-tagged bait immobilised on Ni2+-NTA beads, prey with His-tag removed by PPase; 4°C, 30 min; 25 mM Tris-HCl pH 8.0, 100 mM NaCl; eluted with 250 mM imidazole; SDS-PAGE, Coomassie; conditions: both partners purified
[4] = target: T3, DCmut-2 (FlhDC complex with FlhC R37E, …); assay: as above; conditions: both partners purified

Row | Binder | binding result (YdiV) | also measured
1 | B1 | binds | 
2 | B2 | binds | 
3 | B3 | binds | 
4 | B4 | binds | 
5 | B5 | binds | 
6 | B6 |  | EMSA: DNA binding of FlhD4C2 (49-bp flhB promoter) with 5-fold excess of YdiV and at different molar ratios of YdiV:FlhD4C2 (FlhD4C2 complex [1]): > 3 molar ratio YdiV:FlhD4C2; stoichiometry N (FlhD4C2 complex [2]): 4 YdiV per FlhD4C2; binding result [3]: binds; binding result [4]: binds
